The source of these data is publication PMC12588282 (Science Advances, 2025).

Values joined by “and” are separate entries in the source; they are usually repeats but may differ in a detail not shown here. Equal entries are not always repeated.

As a reminder, the stoichiometry N is a count of units in the complex or per binding partner.

The target in data set [1] is Fc region of the Xenopus laevis IgX heavy chain (Cχ2, Cχ3, Cχ4 and χtp) (Xenopus laevis). The data set is described as follows: 2D cryo-EM classification.
In data set [2] the target is Fragment of Fcχ consisting of Cχ3, Cχ4 and χtp (Xenopus laevis). The data set is described as follows: 2D cryo-EM classification.
For data set [3] the target is unchanged. The data set is described as follows: cryo-EM structure.
Data set [4] addresses Human Fcμ variant with the tailpiece truncated to 13 residues (human). The data set is described as follows: 2D cryo-EM classification.
For data set [5] the target is unchanged. As to the kind of experiment: native gel or EMSA. (In general: Mobility shift assays separate free from complexed probe on a gel.)
The target of data set [6] is Human Fcμ variant with the tailpiece truncated to 14 residues (human). As to the kind of experiment: 2D cryo-EM classification.
For data set [7] the target is unchanged. As to the kind of experiment: native gel or EMSA.
For data set [8], the target named is Human Fcμ variant with the tailpiece truncated to 15 residues (human). As to the kind of experiment: 2D cryo-EM classification.
Data set [9] has the same target. The data set is described as follows: native gel or EMSA.
For data set [10], the target named is Human Fcμ variant with the tailpiece truncated to 16 residues (human). As to the kind of experiment: 2D cryo-EM classification.
Data set [11] shares this target. The data set is described as follows: native gel or EMSA.
Data set [12] has as its target Human Fcμ variant with the tailpiece truncated to 17 residues (human). The data set is described as follows: 2D cryo-EM classification.
The target in data set [13] is Recombinant human Fcμ with an intact 18-amino acid tailpiece (human). As to the kind of experiment: 2D cryo-EM classification.
Data set [14] has the same target. The data set is described as follows: AUC.
Data set [15] concerns the molecule itself. As to the kind of experiment: 2D cryo-EM classification.
Data set [16] deals with the molecule itself. The data set is described as follows: AUC.

In turn, “Fc region of the Xenopus laevis IgX heavy chain (Cχ2, Cχ3, Cχ4 and χtp) (domain or fragment)” had a stoichiometry N in data set [1] of 6.
Take “Fragment of Fcχ consisting of Cχ3, Cχ4 and χtp (domain or fragment)”: the stoichiometry N in data set [2] and in data set [3] was 6 in each case.
For “Human Fcμ variant with the tailpiece truncated to 13 residues (domain or fragment)”, the stoichiometry N in data set [4] and in data set [5] was 6 each time.
Take “Human Fcμ variant with the tailpiece truncated to 14 residues (domain or fragment)”: the stoichiometry N in data set [6] and in data set [7] was 6 each time.
As for “Human Fcμ variant with the tailpiece truncated to 15 residues (domain or fragment)”, the stoichiometry N in data set [8] and in [9] was 6 in each case.
Regarding “Human Fcμ variant with the tailpiece truncated to 16 residues (domain or fragment)”, the stoichiometry N in [10] and in [11] was 6 throughout.
For “Human Fcμ variant with the tailpiece truncated to 17 residues (domain or fragment)”, in data set [12], the stoichiometry N is 6 and 5.
In the case of “Recombinant human Fcμ with an intact 18-amino acid tailpiece (domain or fragment)”, the stoichiometry N in data set [13] was 6 and 4 and 5; in data set [14] it was 4 and 5 and 6.

B1: Human Fcμ variant with the tailpiece truncated to 10 residues (domain or fragment)
chain: IAELPPKVSVFVPPRDGFFGNPRKSKLICQATGFSPRQIQVSWLREGKQVGSGVTTDQVQAEAKESGPTTYKVTSTLTIKESDWLGQSMFTCRVDHRGLTFQQNASSMCVPDQDTAIRVFAIPPSFASIFLTKSTKLTCLVTDLTTYDSVTISWTRQNGEAVKTHTNISESHPNATFSAVGEASICEDDWNSGERFTCTVTHTDLPSPLKQTISRPKGVALHRPDVYLLPPAREQLNLRESATITCLVTGFSPADVFVQWMQRGQPLSPEKYVTSAPMPEPQAPGRYFAHSILTVSEEEWNTGETYTCVVAHEALPNRVTERTVDKSTGKPTLYNVSLVM
Consider B1, for which, in [15], the “stoichiometry N” value is 6 and 4.

B2: Human Fcμ variant with the tailpiece truncated to 12 residues (domain or fragment)
chain: IAELPPKVSVFVPPRDGFFGNPRKSKLICQATGFSPRQIQVSWLREGKQVGSGVTTDQVQAEAKESGPTTYKVTSTLTIKESDWLGQSMFTCRVDHRGLTFQQNASSMCVPDQDTAIRVFAIPPSFASIFLTKSTKLTCLVTDLTTYDSVTISWTRQNGEAVKTHTNISESHPNATFSAVGEASICEDDWNSGERFTCTVTHTDLPSPLKQTISRPKGVALHRPDVYLLPPAREQLNLRESATITCLVTGFSPADVFVQWMQRGQPLSPEKYVTSAPMPEPQAPGRYFAHSILTVSEEEWNTGETYTCVVAHEALPNRVTERTVDKSTGKPTLYNVSLVMSD
With B2, the “stoichiometry N” value in [15] was determined as 6.

B3: Human Fcμ variant with the tailpiece truncated to 11 residues (domain or fragment)
chain: IAELPPKVSVFVPPRDGFFGNPRKSKLICQATGFSPRQIQVSWLREGKQVGSGVTTDQVQAEAKESGPTTYKVTSTLTIKESDWLGQSMFTCRVDHRGLTFQQNASSMCVPDQDTAIRVFAIPPSFASIFLTKSTKLTCLVTDLTTYDSVTISWTRQNGEAVKTHTNISESHPNATFSAVGEASICEDDWNSGERFTCTVTHTDLPSPLKQTISRPKGVALHRPDVYLLPPAREQLNLRESATITCLVTGFSPADVFVQWMQRGQPLSPEKYVTSAPMPEPQAPGRYFAHSILTVSEEEWNTGETYTCVVAHEALPNRVTERTVDKSTGKPTLYNVSLVMS
modifications: glycosylation at Asn563
For the molecule B3, the “stoichiometry N” value in data set [16] was 6.
